Experimental findings from US20230272054A1, “COMBINATION THERAPIES FOR THE TREATMENT AND PREVENTION OF BIOFILMS” (priority 2020, published 2023) are described below.

Entries after “also recorded” stand apart in the source; their conditions may differ.

The test system of one experiment is Human neutrophils. Briefly: NET formation by neutrophils incubated with HMGB1 isoforms (CLSM). The conditions noted are these: 200 nM protein, 3.5 h. In kind it is cell-based. As for the experimental part:
Neutrophils were fixed, then labeled as described above to visualize the NETs.
Visualization of NETs structure upon incubation of neutrophils with various isoforms of HMGB1: Human neutrophils were isolated from blood using the EASYSEP™ isolation kit (Stemcell Technologies Inc.). […] NETs were fixed in formalin, blocked with 10% normal goat serum (Life Technologies), and labeled with α-dsDNA monoclonal antibody (1 μg), and α-neutrophil elastase polyclonal antibody (1 μg) or naive rabbit and mouse isotype controls (1 μg) in 200 μl PBS for 16 h hours at 4° C. NETs were washed with PBS and incubated for 1 h with 1:200 dilution goat α-rabbit IgG conjugated to ALEXAFLUOR® 594, goat α-mouse IgG conjugated to ALEXAFLUOR® 488, and 1:500 dilution wheat germ agglutinin conjugated to ALEXAFLUOR® 350 (PMN membrane stain). NETs were imaged with a Zeiss LSM 800 confocal microscope (Carl Zeiss Inc.) and rendered with Zeiss Zen software.

The next experiment has as its system UPEC biofilms. Briefly: Disruption of 24 h UPEC biofilms in vitro (CLSM, COMSTAT average thickness). The conditions noted are these: 24 h UPEC biofilms, 200 nM protein, 16 h.
Experiment [1] relates to HJ DNA. Briefly: Electrophoretic mobility shift assay (EMSA), binding to HJ DNA. The settings on record: 20 nM 6-carboxyfluorescein HJ DNA, 50-500 nM protein, non-denaturing PAGE. As for the experimental part:
Arrows indicate the HJ DNA-protein complex.
FIG. 11A provides that NEM-modified rHMGB1 was confirmed by triton acetic acid urea gel (TAU gel). […] Arrows indicate the HJ DNA-protein complex.
(§1) Electrophoretic mobility shift assay (EMSA): EMSA was performed as previously described (Devaraj et al., 2019).

The subject of experiment [2] is Enterobacter spp biofilms. Briefly: Disruption of 24 h Enterobacter spp biofilms in vitro (CLSM, COMSTAT average thickness). The conditions noted are these: 24 h biofilms, 200 nM protein, 16 h.
The subject of the next experiment is K. pneumoniae biofilms. Briefly: Disruption of 24 h K. pneumoniae biofilms in vitro (CLSM, COMSTAT average thickness). The settings on record: 24 h biofilms, 200 nM protein, 16 h.
Another experiment relates to B. cenocepacia biofilms. Briefly: Disruption of 24 h B. cenocepacia biofilms in vitro (CLSM, COMSTAT average thickness). The settings on record: 24 h biofilms, 200 nM protein, 16 h.
Experiment [3] deals with HJ DNA. Briefly: Stabilization of HJ DNA at RT or 55° C, non-denaturing PAGE. It is filed as binding. The settings on record: 32P HJ DNA, 25-500 nM protein, RT, 10 min. As for the experimental part:
5′ end-labeled ^32P HJ DNA was incubated with increasing concentrations (25-500 nM) of IHF (FIG. 8A), rHMGB1 (FIG. 8B) or RuvA (FIG. 8C) either at room temperature (RT) or at 55° C. for 10 min, then resolved on a 6% non-denaturing PAGE. Asterisk indicates melted oligos and arrows indicate DNA-protein complex. […] This outcome contrasts with that observed with both IHF and the prototypic HJ DNA binding protein, RuvA.
To test the hypothesis, HJ DNA was incubated with either HMGB1, the DNABII protein IHF, or the prototypic HJ DNA binding protein, RuvA at room temperature (RT) or 55° C. (melting temperature of HJ DNA) and resolved the complexes by non-denaturing polyacrylamide gel electrophoresis (PAGE). […] (FIG. 8) as indicated by the decrease in abundance of the shifted HJ DNA-HMGB1 complex (arrow) and the concomitant increase in the constituent melted oligos (asterisk).
as §1

The subject of experiment [4] is biofilms formed by UPEC, B. cenocepacia, NTHI, Enterobacter spp, S. aureus, K. pneumoniae, A. baumanii, P. aeruginosa, E. faecium. Briefly: Disruption of 24 h bacterial biofilms in vitro by HMGB1 isoforms (LIVE/DEAD stain, CLSM, COMSTAT average thickness). The conditions noted are these: 24 h biofilms of nine pathogens; 200 nM protein, 16 h (S. aureus 800 nM rHMGB1; E. faecium 800 nM, 1 h).

Turning to “NEM-rHMGB1: rHMGB1 alkylated with N-ethylmaleimide (NEM)”, the “induction of NET formation by neutrophils” value is “intertwined NETs specifically formed” with Human neutrophils and “induced neutrophils to form NETs” in the experiment with Human neutrophils (listed as NEM-HMGB1). Also, the “biofilm average thickness / anti-biofilm activity, UPEC” value in the experiment with UPEC biofilms is recorded as “lost its anti-biofilm activity”. Besides, the “binding to HJ DNA (EMSA)” value with HJ DNA [1] was “lost its ability to bind HJ DNA; also recorded: unable to bind to HJ DNA”.

B1: Ox-rHMGB1: rHMGB1 oxidized with hydrogen peroxide (protein, UniProt P09429 1-215, looked up)
High mobility group protein B1: MGKGDPKKPRGKMSSYAFFVQTCREEHKKKHPDASVNFSEFSKKCSERWKTMSAKEKGKFEDMAKADKARYEREMKTYIPPKGETKKKFKDPNAPKRPPSAFFLFCSEYRPKIKGEHPGLSIGDVAKKLGEMWNNTAADDKQPYEKKAAKLKEKYEKDIAAYRAKGKPDAAKKGVVKAEKSKKKKEEEEDEEDEEDEEEEEDEEDEDEEEDDDDE
modifications: oxidized with hydrogen peroxide
In the case of B1, the “biofilm average thickness / anti-biofilm activity, UPEC” value with UPEC biofilms is reported as “lost its anti-biofilm effect as compared to rHMGB1”; in the experiment with UPEC biofilms (listed as ox-rHMGB1) it was “significantly reduced upon oxidation”.

B2: Ac-rHMGB1: acetylated isoform of rHMGB1 (protein, UniProt P09429 1-215, looked up)
High mobility group protein B1: B1 High mobility group protein B1
modifications: acetylated
On to B2, for which, in experiment [2], the “biofilm average thickness / anti-biofilm activity, Enterobacter spp” value is recorded as “significantly disrupted biofilms”. Further, in the experiment with K. pneumoniae biofilms, the “biofilm average thickness / anti-biofilm activity, K. pneumoniae” value is “significantly disrupted biofilms”. In the experiment on B. cenocepacia biofilms, the “biofilm average thickness / anti-biofilm activity, B. cenocepacia” value is given as “significantly disrupted biofilms”.

B3: P-rHMGB1: phosphorylated isoform of rHMGB1 (protein, UniProt P09429 1-215, looked up)
High mobility group protein B1: B1 High mobility group protein B1
modifications: phosphorylated
Turning to B3, the “biofilm average thickness / anti-biofilm activity, Enterobacter spp” value is “significantly disrupted biofilms” in experiment [2] and “significantly disrupted” in experiment [2] (listed as PrHMGB1). The “biofilm average thickness / anti-biofilm activity, K. pneumoniae” value with K. pneumoniae biofilms is recorded as “significantly disrupted biofilms”; in the experiment on K. pneumoniae biofilms (listed as PrHMGB1), “significantly disrupted”. Moreover, the results for the “biofilm average thickness / anti-biofilm activity, B. cenocepacia” value in the experiment on B. cenocepacia biofilms and in the experiment on B. cenocepacia biofilms (listed as PrHMGB1) were “significantly disrupted biofilms” and “significantly disrupted”, respectively.

B4: IHF: the DNABII protein IHF (protein)
chain 1: MATITKLDIIEYLSDKYHLSKQDTKNVVENFLEEIRLSLESGQDVKLSGFGNFELRDKSSRPGRNPKTGDVVPVSARRVVTFKPGQKLRARVEKTK
chain 2: MTKSELMEKLSAKQPTLPAKEIENMVKGILEFISQSLENGDRVEVRGFGSFSLHHRQPRLGRNPKTGDSVNLSAKSVPYFKAGKELKARVDVQA
B4: the “HJ DNA-protein complex at room temperature (RT)” value with HJ DNA [3] is listed as “bound to HJ DNA to form stable complexes at RT”.

B5: nHMGB1: native HMGB1 purified from calf thymus, purchased from Chondrex Inc (protein, UniProt P10103 2-215, looked up)
High mobility group protein B1: GKGDPKKPRGKMSSYAFFVQTCREEHKKKHPDASVNFSEFSKKCSERWKTMSAKEKGKFEDMAKADKARYEREMKTYIPPKGETKKKFKDPNAPKRPPSAFFLFCSEYRPKIKGEHPGLSIGDVAKKLGEMWNNTAADDKQPYEKKAAKLKEKYEKDIAAYRAKGKPDAAKKGVVKAEKSKKKKEEEEDEEDEEDEEEEEDEEDEEEEEDDDDE
With B5, the “biofilm average thickness / anti-biofilm activity, UPEC” value in the experiment with UPEC biofilms was “equivalent to that of rHMGB1”. Further, the “biofilm average thickness / anti-biofilm activity, B. cenocepacia” value in the experiment with B. cenocepacia biofilms is “equivalent to that of rHMGB1”. Moreover, the “biofilm average thickness compared to control” value in experiment [4] is recorded as “significantly disrupted bacterial biofilms”.

B6: RuvA: the prototypic HJ DNA binding protein (protein, UniProt P0A809 1-203, looked up)
Holliday junction branch …: MIGRLRGIIIEKQPPLVLIEVGGVGYEVHMPMTCFYELPEAGQEAIVFTHFVVREDAQLLYGFNNKQERTLFKELIKTNGVGPKLALAILSGMSAQQFVNAVEREEVGALVKLPGIGKKTAERLIVEMKDRFKGLHGDLFTPAADLVLTSPASPATDDAEQEAVAALVALGYKPQEASRMVSKIARPDASSETLIREALRAAL
As for B6, the “HJ DNA-protein complex at room temperature (RT)” value in the experiment with HJ DNA [3] is “bound to HJ DNA to form stable complexes at RT”.
